The record followed here is publication PMC7619190, “Pervanadate-induced oxidation relieves autoinhibition of SRC protein tyrosine kinase” (Science signaling, 2026).

Where no end group is shown, it is not given here. [ ]: non-standard residue; d: D form. pY = N[C@@H](Cc1ccc(OP(=O)(O)O)cc1)C(=O)O

Series [1] concerns the molecule itself. Description: non-reducing SDS-PAGE and immunoblot; HEK293T cells, PV time course, washed with PBS with catalase and NEM, lysed in 2% SDS with NEM; disulfide-linked dimer as slower migrating species.
Series [2] has as its target T1, human SRC SH2 domain (Gln147-Lys252), wild type (human, UniProt P12931-1 147-252).
T1 construct: SRC SH2 domain, human, residues Gln147-Lys252, cloned in pETM11; numbering on UniProt P12931-1; Used after pretreatment with 1 mM TCEP (reduced) or 0.1 mM pervanadate (cysteines oxidised; which residues were oxidised in this sample was not determined); The two states are told apart by the assay (a1, a2); also called SH2^WT; SRC SH2^WT
Briefly: ITC; peptide (400 uM) titrated into SRC SH2 (40 uM) in the cell, 25 C, MicroCal PEAQ-ITC Automated; SH2 domain pretreated with 1 mM TCEP (reducing conditions). The following applies: both partners purified.

B1: peroxiredoxin 1 (PRDX1) (natural protein, human (endogenous in HEK293T), UniProt Q06830 1-199, looked up)
chain: MSSGNAKIGHPAPNFKATAVMPDGQFKDISLSDYKGKYVVFFFYPLDFTFVCPTEIIAFSDRAEEFKKLNCQVIGASVDSHFCHLAWVNTPKKQGGLGPMNIPLVSDPKRTIAQDYGVLKADEGISFRGLFIIDDKGILRQITVNDLPVGRSVDETLRLVQAFQFTDKHGEVCPAGWKPGSDTIKPDVQKSKEYFSKQK
notes: peroxiredoxin 1, endogenous in HEK293T cells; Disulfide-linked dimer seen on non-reducing gels; source: endogenous, HEK293T lysate
Regarding B1, the “stoichiometry N” value in series [1] was found to be 2.

B2: optimized SRC binding phosphopeptide (EPQpYEEIP) (peptide)
peptide: EPQ[pY]EEIP
notes: source: synthetic peptide, bought: Biosynth (95% purity)
For B2, the binding result in series [2] is listed as “binds”.
